Test results taken from article doi:10.1101/2024.12.02.626503 (bioRxiv, 2024).
Values belong to the binder of their own block, whether it stands above or below them. The star is where a group is joined. 5‑TAMRA = CN(C)c1ccc2c(-c3ccc(C(=O)*)cc3C(=O)[O-])c3ccc(N(C)C)cc3[o+]c2c1

Molecular target: CaM WT (UniProt P0DP23 1-149)
Assay: fluorescence polarisation

- binding result: binds
B1: 5-TAMRA-labeled CaV1.3 IQ peptide (peptide)
peptide: not shown
modifications: 5-TAMRA on the N-terminus; C-terminal amide (NH2)

- binding result: binds
B2: 5-TAMRA-labeled CaV2.1 IQ peptide (peptide)
peptide: {5‑TAMRA}-TDLTVGKIYAAMMIMEYYRQSKAKKLQAMREEQD-NH2
SMILES: CC[C@H](C)[C@H](NC(=O)[C@H](CCCCN)NC(=O)CNC(=O)[C@@H](NC(=O)[C@@H](NC(=O)[C@H](CC(C)C)NC(=O)[C@H](CC(=O)O)NC(=O)[C@@H](NC(=O)c1ccc(-c2c3ccc(N(C)C)cc3[o+]c3cc(N(C)C)ccc23)c(C(=O)[O-])c1)[C@@H](C)O)[C@@H](C)O)C(C)C)C(=O)N[C@@H](Cc1ccc(O)cc1)C(=O)N[C@@H](C)C(=O)N[C@@H](C)C(=O)N[C@@H](CCSC)C(=O)N[C@@H](CCSC)C(=O)N[C@H](C(=O)N[C@@H](CCSC)C(=O)N[C@@H](CCC(=O)O)C(=O)N[C@@H](Cc1ccc(O)cc1)C(=O)N[C@@H](Cc1ccc(O)cc1)C(=O)N[C@@H](CCCNC(=N)N)C(=O)N[C@@H](CCC(N)=O)C(=O)N[C@@H](CO)C(=O)N[C@@H](CCCCN)C(=O)N[C@@H](C)C(=O)N[C@@H](CCCCN)C(=O)N[C@@H](CCCCN)C(=O)N[C@@H](CC(C)C)C(=O)N[C@@H](CCC(N)=O)C(=O)N[C@@H](C)C(=O)N[C@@H](CCSC)C(=O)N[C@@H](CCCNC(=N)N)C(=O)N[C@@H](CCC(=O)O)C(=O)N[C@@H](CCC(=O)O)C(=O)N[C@@H](CCC(N)=O)C(=O)N[C@@H](CC(=O)O)C(N)=O)[C@@H](C)CC
